Test results as given in IntAct's records for PubMed 29611543.

B1: Triggering receptor expressed on myeloid cells 2 (Homo sapiens), Q9NZC2 (parent)
chain: MEPLRLLILLFVTELSGAHNTTVFQGVAGQSLQVSCPYDSMKHWGRRKAWCRQLGEKGPCQRVVSTHNLWLLSFLRRWNGSTAITDDTLGGTLTITLRNLQPHDAGLYQCQSLHGSEADTLRKVLVEVLADPLDHRDAGDLWFPGESESFEDAHVEHSISRSLLEGEIPFPPTSILLLLACIFLIKILAASALWAAAWHGQKPGTHPPSELDCGHDPGYQLQTLPGLRDT

Variants of: B1
Conditions: with psn1_human PSEN1, P49768

Effect of a mutation on the interaction, with no effect:
T96K
R47H
T66M
